Laboratory results from article PMC3517063 (Proteomics, 2012).

B1: proteasomal 20S core particle subunit α1 with His6 tag (α1-His6) (natural protein, Haloferax volcanii, UniProt Q9V2V6 1-252, looked up)
chain: MQGQAQQQAYDRGITIFSPDGRLYQVEYAREAVKRGTASIGVRTPEGVVLAADKRSRSPLMEPTSVEKIHKADDHIGIASAGHVADARQLIDFARRQSQVNRLRYGEPIGIETLTKEVTDHIQQYTQVGGARPFGVALLIGGVENGTPRLYETDPSGTPYEWKAVSIGADRGDHQEHLEENFRDDLTLDEGIELALEAIASTSDEGTAPDGVDVATVSAETERFVELSNDEIESYLEANDLLATEDDEQTEE
B2: proteasomal 20S core particle subunit α2 with C-terminal His6 tag (α2-His6) (natural protein, Haloferax volcanii, UniProt Q9V2V5 1-249, looked up)
chain: MNRNDKQAYDRGTSLFSPDGRIYQVEYAREAVKRGAPVLGVRTADGVVLAALRSTPSELMEAESIEKLHKLDDALGAATAGHVADARKLVDFARTTAQREHLRYGEPIGVETLTKTITDNIQESTQSGGTRPYGASLLIGGVENGSGRLFATDPSGTPQEWKAVAIGGHREDVQAALEDGYAEDLSLEDGLALAVEALVAADEEIESDELNLVTVSEAGYEIVDEETIAELFADATADDESDETDEREE

Target: the molecule itself
Test: cross-linking

| Protein | binding result |
| --- | --- |
| B1 | binds |
| B2 | binds |
